This experiment has as its system proteins that co-immunoprecipitated with DUX4-CTD constructs expressed in MB135 myoblasts. Description: LC-MS of proteins co-immunoprecipitated with DUX4-CTD (Table 1) and western validation. The experiment is classed as binding, human. The arrangement: key to 4. mL1dL2 + Dox + IFNG / 4. + IFNG mix / 4. longCTD + Dox + IFNG / 3. + IFNg + Dox longCTD / 3. + Dox longCTD / 3. + IFNG longCTD: peptide-spectrum matches (PSMs) per protein. Particulars: kind of count not given; for 4. + IFNG mix: LC-MS value per protein co-immunoprecipitated from MB135 myoblasts, + IFNG mix sample (no Dox); for 4. mL1dL2 + Dox + IFNG: LC-MS value per protein co-immunoprecipitated with DUX4-CTD construct mL1dL2 in MB135 myoblasts. The text has this:
As an unbiased method to identify proteins that interact with the C-terminal region of DUX4, liquid chromatography mass spectroscopy (LC-MS) was used to identify proteins that co-immunoprecipitated with DUX4-CTD constructs expressed in MB135 myoblasts. In the first experiment, MB135iDUX4-CTD cells were used, either untreated, treated with doxycycline alone, or with both doxycycline and IFNG. In the second experiment, MB135iDUX4-CTD and MB135iDUX4mL1dL2 cells were used, both treated with doxycycline and IFNG, compared to these two cell lines untreated and combined as a control. Proteins with a minimum of 2 peptide spectrum matches (PSMs) in at least one sample that were identified in both experiments were assigned to one of ten categories (see Methods) to separate candidate interactors from other categories that might be co-purified because of obligate interactions (e.g., proteasome or ribosome) or might be less likely to be physiologically relevant (e.g., cytoskeletal proteins). Candidate interactors were then ranked based on the total PSMs for that protein across all samples.
Centrifugation at 2500 rcf at 4° C. for 5 min pelleted the nuclei, supernatant was discarded, and nuclei resuspended in 1 mL IP buffer pH 7.4 (25 mM Tris-HCl pH 7.5, 175 mM NaCl, 1 mM EDTA, 0.2% NP-40, 5% glycerol) and incubated for 1 hour at 4° C. with rotation then spun at 21000 rcf for 10 minutes at 4° C. to pellet insoluble debris. Protein concentration was determined using the Pierce BCA Protein Assay Kit (ThermoFisher, 23225). An equivalent amount of protein per sample was pre-cleared with Dynabeads Protein G (Invitrogen) bound to mouse IgG (Abcam #131368) for 1 hour at 4° C. with rotation. FLAG-tagged constructs were then immunoprecipitated with Dynabeads Protein G beads coupled to mouse anti-FLAG M2 mAb (Sigma F3165) for 3 hours at 4° C. with rotation. Beads were washed 3× with 1 mL IP buffer and eluted by adding 2× NuPage LDS Sample Buffer (Thermo Fisher, diluted from 4× with PBS) to the beads and heating for 10 minutes at 70° C.
For LC-MS, anti-FLAG immunoprecipitation was performed with beads cross-linked to the anti-FLAG antibody and the proteins competitively eluted with FLAG peptide. Eluted protein samples were electrophoresed into a NuPage 4-12% Bis-Tris gel, excised, and processed by the Fred Hutchinson Cancer Research Center Proteomics Core. Samples were reduced, alkylated, digested with trypsin, desalted, and run on the Orbitrap Eclipse Tribid Mass Spectrometer (Thermo Fisher). Proteomics data were analyzed using Proteome Discoverer 2.4 against a Uniprot human database that included common contaminants using Sequest HT and Percolator for scoring. […] Proteins that were identified in at least one sample from both independent experiments with at least 2 PSMs in one sample were assigned to one of ten categories: 1, candidates; 2, cytoskeletal associated; 3, cytoskeletal; 4, ribosome/translation associated; 5, proteasome associated; 6, membrane or extracellular; ER, golgi, or vesicle associated; 8, lipid metabolism; 9, chaperones; 10, nuclear import or nuclear membrane associated. The proteins in category 1 were further investigated for interactions with DUX4.

B1: CFL1 (protein)
chain: MVSPGHGHLRERKELTPHSTNPAAARIWDATYSDGYVRPASGVAVSDGVIKVFNDMKVRKSSTPEEVKKRKKAVLFCLSEDKKNIILEEGKEILVGDVGQTVDDPYATFVKMLPDKDCRYALYDATYETKESKKEDLVFIFWAPESAPLKSKMIYASSKDAIKKKLTGIKHELQANCYEEVKDRCTLAEKLGGSAVISLEGKPL
Take B1: the “4. + IFNG mix” value turned out to be 1 and the “4. mL1dL2 + Dox + IFNG” value was 4.

B2: TUBB6 (protein)
chain: MREIVHIQAGQCGNQIGTKFWEVISDEHGIDPAGGYVGDSALQLERINVYYNESSSQKYVPRAALVDLEPGTMDSVRSGPFGQLFRPDNFIFGQTGAGNNWAKGHYTEGAELVDAVLDVVRKECEHCDCLQGFQLTHSLGGGTGSGMGTLLISKIREEFPDRIMNTFSVMPSPKVSDTVVEPYNATLSVHQLVENTDETYCIDNEALYDICFRTLKLTTPTYGDLNHLVSATMSGVTTSLRFPGQLNADLRKLAVNMVPFPRLHFFMPGFAPLTSRGSQQYRALTVPELTQQMFDARNMMAACDPRHGRYLTVATVFRGPMSMKEVDEQMLAIQSKNSSYFVEWIPNNVKVAVCDIPPRGLKMASTFIGNSTAIQELFKRISEQFSAMFRRKAFLHWFTGEGMDEMEFTEAESNMNDLVSEYQQYQDATANDGEEAFEDEEEEIDG
With B2, the “4. mL1dL2 + Dox + IFNG” value was found to be 23.

B3: TUBB (protein)
chain: MREIVHIQAGQCGNQIGAKFWEVISDEHGIDPTGTYHGDSDLQLDRISVYYNEATGGKYVPRAILVDLEPGTMDSVRSGPFGQIFRPDNFVFGQSGAGNNWAKGHYTEGAELVDSVLDVVRKEAESCDCLQGFQLTHSLGGGTGSGMGTLLISKIREEYPDRIMNTFSVVPSPKVSDTVVEPYNATLSVHQLVENTDETYCIDNEALYDICFRTLKLTTPTYGDLNHLVSATMSGVTTCLRFPGQLNADLRKLAVNMVPFPRLHFFMPGFAPLTSRGSQQYRALTVPELTQQVFDAKNMMAACDPRHGRYLTVAAVFRGRMSMKEVDEQMLNVQNKNSSYFVEWIPNNVKTAVCDIPPRGLKMAVTFIGNSTAIQELFKRISEQFTAMFRRKAFLHWYTGEGMDEMEFTEAESNMNDLVSEYQQYQDATAEEEEDFGEEAEEEA
Regarding B3, the “4. + IFNG mix” value is 19 and the “4. mL1dL2 + Dox + IFNG” value came out at 56.

B4: ACTN1 (protein)
chain: MDHYDSQQTNDYMQPEEDWDRDLLLDPAWEKQQRKTFTAWCNSHLRKAGTQIENIEEDFRDGLKLMLLLEVISGERLAKPERGKMRVHKISNVNKALDFIASKGVKLVSIGAEEIVDGNVKMTLGMIWTIILRFAIQDISVEETSAKEGLLLWCQRKTAPYKNVNIQNFHISWKDGLGFCALIHRHRPELIDYGKLRKDDPLTNLNTAFDVAEKYLDIPKMLDAEDIVGTARPDEKAIMTYVSSFYHAFSGAQKAETAANRICKVLAVNQENEQLMEDYEKLASDLLEWIRRTIPWLENRVPENTMHAMQQKLEDFRDYRRLHKPPKVQEKCQLEINFNTLQTKLRLSNRPAFMPSEGRMVSDINNAWGCLEQVEKGYEEWLLNEIRRLERLDHLAEKFRQKASIHEAWTDGKEAMLRQKDYETATLSEIKALLKKHEAFESDLAAHQDRVEQIAAIAQELNELDYYDSPSVNARCQKICDQWDNLGALTQKRREALERTEKLLETIDQLYLEYAKRAAPFNNWMEGAMEDLQDTFIVHTIEEIQGLTTAHEQFKATLPDADKERLAILGIHNEVSKIVQTYHVNMAGTNPYTTITPQEINGKWDHVRQLVPRRDQALTEEHARQQHNERLRKQFGAQANVIGPWIQTKMEEIGRISIEMHGTLEDQLSHLRQYEKSIVNYKPKIDQLEGDHQLIQEALIFDNKHTNYTMEHIRVGWEQLLTTIARTINEVENQILTRDAKGISQEQMNEFRASFNHFDRDHSGTLGPEEFKACLISLGYDIGNDPQGEAEFARIMSIVDPNRLGVVTFQAFIDFMSRETADTDTADQVMASFKILAGDKNYITMDELRRELPPDQAEYCIARMAPYTGPDSVPGALDYMSFSTALYGESDL
With B4, the “4. + IFNG mix” value came out at 9 and the “4. mL1dL2 + Dox + IFNG” value worked out at 22.

B5: WDR1 (protein)
chain: MPYEIKKVFASLPQVERGVSKIIGGDPKGNNFLYTNGKCVILRNIDNPALADIYTEHAHQVVVAKYAPSGFYIASGDVSGKLRIWDTTQKEHLLKYEYQPFAGKIKDIAWTEDSKRIAVVGEGREKFGAVFLWDSGSSVGEITGHNKVINSVDIKQSRPYRLATGSDDNCAAFFEGPPFKFKFTIGDHSRFVNCVRFSPDGNRFATASADGQIYIYDGKTGEKVCALGGSKAHDGGIYAISWSPDSTHLLSASGDKTSKIWDVSVNSVVSTFPMGSTVLDQQLGCLWQKDHLLSVSLSGYINYLDRNNPSKPLHVIKGHSKSIQCLTVHKNGGKSYIYSGSHDGHINYWDSETGENDSFAGKGHTNQVSRMTVDESGQLISCSMDDTVRYTSLMLRDYSGQGVVKLDVQPKCVAVGPGGYAVVVCIGQIVLLKDQRKCFSIDNPGYEPEVVAVHPGGDTVAIGGVDGNVRLYSILGTTLKDEGKLLEAKGPVTDVAYSHDGAFLAVCDASKVVTVFSVADGYSENNVFYGHHAKIVCLAWSPDNEHFASGGMDMMVYVWTLSDPETRVKIQDAHRLHHVSSLAWLDEHTLVTTSHDASVKEWTITY
On to B5, for which the “4. mL1dL2 + Dox + IFNG” value is reported as 2.

B6: DBN1 (protein)
chain: AGVSFSGHRLELLAAYEEVIREESAADWALYTYEDGSDDLKLAASGEGGLQELSGHFENQKVMYGFCSVKDSQAALPKYVLINWVGEDVPDARKCACASHVAKVAEFFQGVDVIVNASSVEDIDAGAIGQRLSNGLARLSSPVLHRLRLREDENAEPVGTTYQKTDAAVEMKRINREQFWEQAKKEEELRKEEERKKALDERLRFEQERMEQERQEQEERERRYREREQQIEEHRRKQQTLEAEEAKRRLKEQSIFGDHRDEEEETHMKKSESEVEEAAAIIAQRPDNPREFFKQQERVASASAGSCDVPSPFNHRPGSHLDSHRRMAPTPIPTRSPSDSSTASTPVAEQIERALDEVTSSQPPPLPPPPPPAQETQEPSPILDSEETRAAAPQAWAGPMEEPPQAQAPPRGPGSPAEDLMFMESAEQAVLAAPVEPATADATEIHDAADTIETDTATADTTVANNVPPAATSLIDLWPGNGEGASTLQGEPRAPTPPSGTEVTLAEVPLLDEVAPEPLLPAGEGCATLLNFDELPEPPATFCDPEEVEGESLAAPQTPTLPSALEELEQEQEPEPHLLTNGETTQKEGTQASEGYFSQSQEEEFAQSEELCAKAPPPVFYNKPPEIDITCWDADPVPEEEEGFEGGD
Take B6: the “4. mL1dL2 + Dox + IFNG” value is 2.

B7: LMNA (protein)
chain: METPSQRRATRSGAQASSTPLSPTRITRLQEKEDLQELNDRLAVYIDRVRSLETENAGLRLRITESEEVVSREVSGIKAAYEAELGDARKTLDSVAKERARLQLELSKVREEFKELKARNTKKEGDLIAAQARLKDLEALLNSKEAALSTALSEKRTLEGELHDLRGQVAKLEAALGEAKKQLQDEMLRRVDAENRLQTMKEELDFQKNIYSEELRETKRRHETRLVEIDNGKQREFESRLADALQELRAQHEDQVEQYKKELEKTYSAKLDNARQSAERNSNLVGAAHEELQQSRIRIDSLSAQLSQLQKQLAAKEAKLRDLEDSLARERDTSRRLLAEKEREMAEMRARMQQQLDEYQELLDIKLALDMEIHAYRKLLEGEEERLRLSPSPTSQRSRGRASSHSSQTQGGGSVTKKRKLESTESRSSFSQHARTSGRVAVEEVDEEGKFVRLRNKSNEDQSMGNWQIKRQNGDDPLLTYRFPPKFTLKAGQVVTIWAAGAGATHSPPTDLVWKAQNTWGCGNSLRTALINSTGEEVAMRKLVRSVTVVEDDEDEDGDDLLHHHHGSHCSSSGDPAEYNLRSRTVLCGTCGQPADKASASGSGAQVGGPISSGSSASSVTVTRSYRSVGGSGGGSFGDNLVTRSY
Consider B7, for which the “4. + IFNG mix” value amounted to 4 and the “4. mL1dL2 + Dox + IFNG” value is recorded as 8.

B8: CAVIN1 (protein)
chain: MEDPTLYIVERPLPGYPDAEAPEPSSAGAQAAEEPSGAGSEELIKSDQVNGVLVLSLLDKIIGAVDQIQLTQAQLEERQAEMEGAVQSIQGELSKLGKAHATTSNTVSKLLEKVRKVSVNVKTVRGSLERQAGQIKKLEVNEAELLRRRNFKVMIYQDEVKLPAKLSISKSLKESEALPEKEGEELGEGERPEEDAAALELSSDEAVEVEEVIEESRAERIKRSGLRRVDDFKKAFSKEKMEKTKVRTRENLEKTRLKTKENLEKTRHTLEKRMNKLGTRLVPAERREKLKTSRDKLRKSFTPDHVVYARSKTAVYKVPPFTFHVKKIREGQVEVLKATEMVEVGADDDEGGAERGEAGDLRRGSSPDVHALLEITEESDAVLVDKSDSD
As to B8, the “4. + IFNG mix” value is 7 and the “4. mL1dL2 + Dox + IFNG” value is 16.

(Values after US20250339531A1, “DUX4 POLYPEPTIDES AND NUCLEIC ACIDS FOR TREATING INFLAMMATORY AND AUTOIMMUNE CONDITIONS” (Fred Hutchinson Cancer Center, priority 2021, published 2025).)
